Laboratory results taken from patent US7005283B2, “Cytochrome P450 oxygenases and their uses” (Washington State University Research Foundation, priority 1999, dated 2006).

B1: clone F9: Taxus cuspidata cytochrome P450 oxygenase, full-length clone, SEQ ID NO: 48 (nt) / 61 (aa) (protein, listed as Taxus cuspidata)
chain: MDSFNFLRGIGADFGGFIQFQSSPAVLSLSLITTILGVLLLWFFLHKNGSSVTLPPGNLGFPFIGETIPFLRALRSETPQTFFDERVKKFGVVFKTRIVGHPTVVLCGPEGNRFLLSNEDKLVQASLPNSSEKLIGKYSILSKRGEEHRILRAALARFLRPQALQGYVAKMSSEIQHHIKQKWKGNDEVKVLPLIRTLIFNIASSLFFGINDEHQQEQLHHLLEAIVLGSLSVPLDFPGTRFRKALDARSKLDEILSSLMESRRRDLRLGTASENQDLLSVLLTFKDERGNPLTDKEIFDNFSFMLHASYDTTVSPTGLMLKLLFSSPDCYEKLVQEQLGIVGNKKEGEEISWNDLKAMKYTCKVVQESMRMLPPVFGSYRKAXTYIHYDGYTIPKGWNIFWSPYTTHGKEEYFNEADKFMPSRFEEGKYVAPYTFLPFGAGLRVCPGWEFAKTEILLFVHHFITTFSSYIPIDPKDKISGDPFPPLPTNGFSMKLFTRS
modifications: not fully specified; (1)..(500) “Xaa” equals any peptide
B2: clone F12: Taxus cuspidata cytochrome P450 oxygenase, full-length clone, SEQ ID NO: 43 (nt) / 56 (aa) (protein, listed as Taxus cuspidata)
chain: MDTFIQHESSPLLLSLTLAVILGTILLLILSGKQYRSSRKLPPGNMGFPLIGETIALISDTPRKFIDDRVKKFGLVFKTSLIGHPAVVICGSSANRFLLSNEEKLVRMSLPNAVLKLLGQDCVMGKTGVEHGIVRTALARALGPQALQNYVAKMSSEIEHHINQKWKGKDEVKVLPLIRSLVFSISTSLFFGINDEHQQKRLHHLLETVAMGLVSIPLDFPGTRFRKALYARSKLDEIMSSVIERRRSDLRSGAASSDQDLLSVLVTFKDERGNSFADKEILDNFSFLLHALYDTTISPLTLIFKLLSSSPECYENIAQEQLEILGNKKDREEISWKDLKDMKYTWQAVQETLRMFPPVYGYIREALTDIDYDGYTIPKGWRILCSPHTTHSKEEYFDEPEEFRPSRFEDQGRHVAPYTFIPFGGGLRICAGWEFAKMEILLFMHHFVKTFSHFIPVDPNEKISRDPLPPIPVKGFSIKPFPRS
B3: clone F51: Taxus cuspidata cytochrome P450 oxygenase, full-length clone, SEQ ID NO: 47 (nt) / 60 (aa) (protein, listed as Taxus cuspidata)
chain: MDTIRASFGEVIQPEYSPLIISXALAAFLGIVIFSIFSSTRRSYVNLPPGNLGLPFIGETIQFLGALQSEKPHTFFDERVKKFGKVFKTSLIGDPTVVLCGPAGNRLVLSNEDKLVQSAGPKSFLKLFGEDSVAAKREESHRILRSALGRFLGPHALQNYIGKMNSEMQRHFDDKWKGKDEVKVLPLVRGLIFSIATSLFFNINDDRQREQLHGLLDTILVGSMTIPLNIPGTLFRKAVKARAKLDEILFALIENRRRELRSGLNSGNQDLLSSLLTFKDEKGNPLTDKEILDNFSVMLHASYDTTVSPTVLILKLLASNPECYEKVVQEQLGILASKKEGEEVNWKDLKAMPYTWQAIQEPLXMPXQLLECFEELSLIFSWKAIQFQKDGQLCGXLIVNGREEFFNEPDKFKPSRFEEGKPLDPYTFIPFGAGVRICAGWEFAKAELLLFVHPFVKNFSGCIIIDPNEKISGDPFPPLPTSGQLMKLIPRS
modifications: not fully specified; (1)..(492) “Xaa” equals any peptide
B4: clone F82: Taxus cuspidata cytochrome P450 oxygenase, full-length clone, SEQ ID NO: 81 (nt) / 87 (aa) (protein, listed as Taxus cuspidata)
chain: MDAFNVLMGPLAKFDNFMQLGSYSENLSVTITVTAIAVITLLLVLIRSKPQSCVNLPPGKLGYPFIGETLQLLQAFRSNRPQQFFDERQKKFGSVFKTSLIGDRTVVLCGPSGNRLLLSNENKLVEASWPSSSIKLIGEDSIAGKNGEKHRILRAAVNRYLGPGALQNYMAKMRSEIEHHMNEKWKGKEQVKVLPLVKENVFSIATSLFFGVNDDGERERLHDLLETALAGVFSIPLDFPGTNYRKALEARLKLDKVLSSLIERRRSDLRSGVASGNEDLLSVWLTFKDEEGNPLTDKEILDNFSTLLHASYDTTTSALTLTLKLMSSSTECYHKVVQEQLRIVSNKKEGEEISLKDLKDMKYTWQVVQETLRMFPPLFGSFRKAITDIHYDGYTIPKGWKVLWTTYSTHGREEYFNEPEKFMPSRFEEEGRHVAPYTFLPFGAGVRTCPGWEFSKTQILLFLHYFVKTFSGYIPLDPDEKVLGNPVPPLPANGFAIKLFPRPSFDQGSPME
B5: clone F72: Taxus cuspidata cytochrome P450 oxygenase, full-length clone, SEQ ID NO: 54 (nt) / 67 (aa) (protein, listed as Taxus cuspidata)
chain: MDVFYPLKSTVAKFNECFPAILFIVLSAVAGIVLPLLLFLRSKRRSSVGLPPGKLGYPFIGESLLFLKALRSNTVEQFLDERVKNFGNVFKTSLIGHPTVVLCGPAGNRLILANEEKLVQMSWPKSSMKLMGEKSITAKRGEGHMIIRSALQGFFSPGALQKYIGQMSKTIENHINEKWKGNDQVSVVALVGDLVFDISACLFFNINEKHERERLFELLEIIAVGVLAVPVDLPGFAYHRALQARSKLNAILSGLIEKRKMDLSSGLATSNQDLLSVFLTFKDDRGNPCSDEEILDNFSGLLHGSYDTTVSAMACVFKLLSSNPECYEKVVQEQLGILSNKLEGDEITWKDVKSMKYTWQVVQETLRLYPSIFGSFRQAITDIHYNGYIIPKGWKLLWTPYTTHPKEMYFSEPEKFLPSRFDQEGKLVAPYTFLPFGGGQRSCPGWEFSKMEILLSVHHFVKTFSTFTPVDPAEIIARDSLCPLPSNGFSVKLFPRSYSLHTGNQVKKI
B6: clone F7: Taxus cuspidata cytochrome P450 oxygenase, full-length clone, SEQ ID NO: 83 (nt) / 89 (aa) (protein, listed as Taxus cuspidata)
chain: MDSFTFVTIKMGKIWQVIQVEYILSLTLTAILLFFFRYRNKSSHKLPPGNLGFPFIGETIQFLRSLRSQTPEFFFDERVKKFGPVFKTSLIGAPTVIFCGAAGSRLVLSNEDKLVQMESPSSLKKLMGENSILYKREEEHRILRSALSRFLGPQALQTYIAKMSTEIERHINEKWKGKEEVKTLPLIRGLVFSIASSLFFDINDEPQQERLHHHLESLVAGSMAVRLDFPGTRFRKAVEARSKLDEALHSLIKSRRSDLLSGKASSNQDLLSVLLSFKDERGNPLRDEEILDNFSLILHASYDTTISPMVLTLKLLSSNPECYDKVVQEQFGILANKKEGEEISWKDLKAMKYTWQVVQETLRMFPPLFGSFRKAMVDINYDGYTIPKGWIVLWTTYSTHVKEEYFNEPGKFRPSRFEHDGRHVAPYTFLPFGGGLRTCPGWEFSKTEILLFIHHFVKTFGSYLPVDPNEKISADPFPPLPANGFSIKLFPRS

Tests used:
[1] = assay type: binding, Saccharomyces cerevisiae
Description: CO-sensor of the 19 full-length cytochrome P450 clones from Taxus, thus far obtained, ten have yielded detectable CO-difference spectra (Table 2). […] These alternative expression systems for cytochrome P450 genes include the yeast Pichia pastoris, for which expression vectors and hosts are commercially available (Invitrogen, Carlsbad, Calif.), as well as established E. coli and baculovirus-insect cell systems for which general expression procedures have been described (Barnes, Methods Enzymol. 272:1–14, 1996;Gonzalez et al., Methods Enzymol. 206:93–99, 1991;Lee et al., Methods Enzymol. 272:86–98, 1996;and Lupien et al., Arch. Biochem. Biophys. 368:181–192, 1999).
Appropriate restriction sites were introduced by standard PCR methods (Innis et al., PCR Protocols: A Guide to Methods and Applications, Academic Press, San Diego, Calif., 1990) immediately upstream of the ATG start codon and downstream of the stop codon of all full-length cytochrome P450 clones. These modified amplicons were gel-purified, digested with the corresponding restriction enzymes, and then ligated into the expression vector pYeDP60. The vector/insert junctions were sequenced to ensure that no errors had been introduced by the PCR construction. Verified clones were transformed into yeast using the lithium acetate method (Ito et al., J. Bacteriol. 153:163–168, 1983). Isolated transformants were grown to stationary phase in SGI medium (Pompon et al., Methods Enzymol. 272:51–64, 1996), and used as inocula for a large-scale expression culture grown in YPL medium (Pompon et al., Methods Enzymol. 272:51–64, 1996). Approximately 24 hours after induction of cytochrome P450 expression with galactose (to 10% final concentration), a portion of the yeast cell culture was harvested by centrifugation. One-half of the culture was treated with carbon monoxide, and the cytochrome P450 CO-difference spectrum was recorded directly (using untreated cells as a control) by spectrophotometry (Omura and Sato, J. Biol. Chem. 239:2370–2378, 1964).

[2] = In vivo assay of yeast cells expressing recombinant oxygenases, radio-HPLC, substrate taxadien-5α-ol; assay type: cell-based, Saccharomyces cerevisiae; conditions: yeast transformants, radio-HPLC and GC-MS
Description: (§1) Transformed yeast cells that fimctionally express a recombinant cytochrome P450 gene from Taxus (by CO-difference spectrum) can be tested in vivo for their ability to oxygenate (hydroxylate or epoxidize) taxoid substrates fed exogenously to the cells, thereby eliminating the need for microsome isolation for preliminary in vitro assays.
(§2) Accordingly, several clones of the available full-length clones were expressed in induced yeast host cells.
(§3) Isolated transformants for each full-length cytochrome P450 clone shown to express a functional enzyme by CO-difference spectrum (ten clones) were grown to stationary phase in 2 mL SGI medium at 30° C. and used to inoculate a 10-mL expression culture (in YPL medium). Approximately 8 hours after induction, cells were harvested by centrifugation (10 minutes at 1500 rpm), and the pellet was resuspended in 2 mL of fresh YPL medium.
(§4) To eliminate additional complication and uncertainty associated with microsome isolations for in vitro assays, 10^6 dpm of [20-^3H3]taxa-4(5),11(12)-diene (16 Ci/mol) or [20-^3H2]taxa-4(20),11(12)-diene-5-α-ol (4.0 Ci/mol), or other taxoid substrate were added directly to the cell suspension to assay conversion in vivo. After 12 hours of incubation at 30° C. with agitation (250 rpm), the mixture was treated for 15 minutes in a sonication bath and extracted 3 times with 2 mL diethyl ether to insure isolation of the biosynthetic products. These ether extracts, containing residual substrate and derived product(s), were concentrated to dryness, resuspended in 200 μL of CH3CN, and filtered. These samples were analyzed by radio-HPLC (Hefner et al., Chemistry and Biology 3:479–489, 1996) using a 4.6 mm i.d.×250 mm column of Econosil C18, 5 μ (Alltech, Deerfield, Ill.) with a gradient of CH3CN in H2O from 0% to 85% (10 minutes at 1 mL/minute), then to 100% CH3CN over 40 minutes.

[3] = In vivo assay of yeast cells expressing recombinant oxygenases, radio-HPLC, substrate taxadiene; assay type: cell-based, Saccharomyces cerevisiae; conditions: assayed with Taxadiene; graded symbols, key not given
Description: as §1, §2, §3, §4

Row | Molecule | CO diff. spec. [1] | product formed from taxadien-5α-ol [2] | product identified HPLC peak [3]
1 | B1 | + | more polar products | No
2 | B2 | + | more polar products | No
3 | B3 | + | diol products | No
4 | B4 | − |  | No
5 | B5 | + |  | No
6 | B6 | − |  | No
